# Data taken from PMC2561144 (Journal of Experimental Botany, 2008).
# B1: His6-AtRabD1 (natural protein)
# chain: not shown
# B2: His6-AtRabC2a (natural protein)
# chain: MGSSSGQSGYDLSFKILLIGDSGVGKSSLLVSFISSSVEDLAPTIGVDFKIKQLTVGGKRLKLTIWDTAGQERFRTLTSSYYRGAQGIILVYDVTRRETFTNLVDVWGKEIELYSTNQECVRMLVGNKVDRESERGVSREEGIALAKELNCMFLECSARTRQNVEQCFEELALKIMEVPSLLEEGSSAVKRNILKQKPEHQTNTQSGCCS
# What was measured:
# [1] = biological target: T1, MYA2 tail 2, aa1049-aa1450, fused with GST (Arabidopsis thaliana, UniProt Q9LKB9 1049-1450); experiment: pull-down
# T1 sequence: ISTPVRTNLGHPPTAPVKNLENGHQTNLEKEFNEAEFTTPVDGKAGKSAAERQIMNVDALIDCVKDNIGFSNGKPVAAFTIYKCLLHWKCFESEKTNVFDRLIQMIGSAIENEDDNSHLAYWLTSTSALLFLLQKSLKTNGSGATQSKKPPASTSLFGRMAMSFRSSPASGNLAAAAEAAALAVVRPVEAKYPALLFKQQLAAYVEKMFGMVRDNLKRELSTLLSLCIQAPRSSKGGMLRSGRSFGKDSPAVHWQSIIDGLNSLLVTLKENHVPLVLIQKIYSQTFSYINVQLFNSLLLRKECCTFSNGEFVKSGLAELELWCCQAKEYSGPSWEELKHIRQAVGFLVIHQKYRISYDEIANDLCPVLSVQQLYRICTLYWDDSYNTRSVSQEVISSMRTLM
# [2] = biological target: T2, MYA2 tail 1, aa1049-aa1505, fused with GST (Arabidopsis thaliana, UniProt Q9LKB9 1049-1505); experiment: pull-down
# T2 sequence: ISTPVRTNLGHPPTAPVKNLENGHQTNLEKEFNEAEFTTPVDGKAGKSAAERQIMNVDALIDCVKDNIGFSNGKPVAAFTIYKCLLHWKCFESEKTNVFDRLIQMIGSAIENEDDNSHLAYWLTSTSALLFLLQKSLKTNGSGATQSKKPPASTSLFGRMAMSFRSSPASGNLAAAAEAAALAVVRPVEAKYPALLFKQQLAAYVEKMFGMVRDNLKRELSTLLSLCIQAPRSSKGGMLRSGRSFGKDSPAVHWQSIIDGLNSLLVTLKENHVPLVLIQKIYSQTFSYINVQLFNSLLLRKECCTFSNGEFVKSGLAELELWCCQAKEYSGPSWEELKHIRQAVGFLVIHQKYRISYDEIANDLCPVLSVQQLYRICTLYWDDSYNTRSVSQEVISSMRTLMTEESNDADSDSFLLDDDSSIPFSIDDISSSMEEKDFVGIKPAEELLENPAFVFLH
binder,measurement,setting,value
B1,fold amount bound with GTP over that without GTP or on control beads,[1],1.6 fold
same,fold amount bound with GTP over that without GTP or on control beads,[2],2.6 fold
B2,fold amount bound with GTP over that without GTP or on control beads,[2],1.7 fold
